Source: article PMC9704045
Read-outs that look alike come from different tables or passages of the source.

Columns and labels:
[1] = biological target: wild-type HexaPro (D614) SARS-CoV-2 spike trimer (SARS-CoV-2); test: BLI; Octet Red384; […]; analyte ([…]; HBS-EP+ buffer; 1:1 binding model
[2] = biological target: wild-type HexaPro (D614) SARS-CoV-2 spike trimer (SARS-CoV-2); test: as above; remark: listed apart in the source

“cilgavimab (AZD1061), full-length IgG (antibody)” was tested, and the Kd [1] was 0.669 nM and the Kd [2] was < 0.001 nM.
